Laboratory results reported in US20100003232.

Legend:
[1] = target: Aβ produced naturally by APPswe.3 cells (secreted Aβ in conditioned medium) (UniProt P05067)
[2] = target: Human insulin (UniProt P01308)
[3] = target: amyloid-β peptide (1-42) (UniProt P05067)
[4] = target: secreted ectodomain of the amyloid precursor protein derivative generated by α-secretase (APPsα) (UniProt P05067)
[5] = target: β-Amyloid (1-40) (UniProt P05067)

UniProt P01308, sequence (P01308 whole entry, looked up): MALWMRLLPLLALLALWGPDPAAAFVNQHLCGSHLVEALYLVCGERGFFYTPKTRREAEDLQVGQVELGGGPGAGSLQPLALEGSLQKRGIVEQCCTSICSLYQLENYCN

Substance: IDE D426C/K899C double cysteine mutant
- t½ for the degradation of secreted Aβ [1]: that by the IDE D426C/K899C mutant was 2 minutes
- degradation followed by MALDI-TOF [2]: all three double cysteine IDE mutants degraded both insulin and Aβ(1-42) more effectively than wild-type IDE
- degradation followed by MALDI-TOF [3]: all three double cysteine IDE mutants degraded both insulin and Aβ(1-42) more effectively than wild-type IDE
- degradation in conditioned medium (Western blot) [4]: IDE had no effect on the secreted ectodomain of the amyloid precursor protein derivative generated by α-secretase (APPsα)
- Hill coefficient [5]: 2.3
- Kcat [5]: 20 s⁻¹

Substance: wild type human insulin-degrading enzyme (IDE)
- t½ for the degradation of secreted Aβ [1]: The estimated t½ for the degradation of secreted Aβ by wild-type IDE was 11 minutes
- degradation in conditioned medium (Western blot) [4]: IDE had no effect on the secreted ectodomain of the amyloid precursor protein derivative generated by α-secretase (APPsα)
- Hill coefficient [5]: 2.9
- Kcat [5]: 8 s⁻¹
- Km [5]: 25 µM
